B1: AP33 antibody (as used in Example 2) (antibody, V domains shown)
VH: EVQLQESGPSLVKPSQTLSLTCSVTGDSITSGYWNWIRKFPGNKLEYMGYISYSGSTYYNLSLRSRISITRDTSKNQYYLQLNSVTTEDTATYYCALITTTTYAMDYWGQGTSVTVS
VL: NIVLTQSPVSLAVSLGQRATISCRASESVDGYGNSFLHWFQQKPGQPPKLLIYLASNLNSGVPARFSGSGSRTDFTLTIDPVEADDAATYYCQQNNVDPWTFGGGTKLEIK
B2: chimeric AP33 antibody (Vh/Vl) (antibody, V domains shown)
VH: B1 VH
VL: B1 VL

Experiments:
[1] = molecular target: HCV E1E2 glycoproteins, genotype 1b (Con1) (Hepatitis C virus genotype 1b (Con1)) (UniProt Q9WMX2); assay: cell-based or functional assay
Sequence of HCV E1E2 glycoproteins, genotype 1b (Con1) (Hepatitis C virus genotype 1b (Con1)) (Q9WMX2 192-383 limits assumed, chain 1 of 2): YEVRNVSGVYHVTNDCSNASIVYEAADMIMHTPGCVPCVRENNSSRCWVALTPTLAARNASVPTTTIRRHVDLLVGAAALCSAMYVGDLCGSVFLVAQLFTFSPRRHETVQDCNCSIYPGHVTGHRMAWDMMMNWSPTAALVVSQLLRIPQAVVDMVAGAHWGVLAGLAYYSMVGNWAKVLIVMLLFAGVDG
Sequence of HCV E1E2 glycoproteins, genotype 1b (Con1) (Hepatitis C virus genotype 1b (Con1)) (Q9WMX2 384-746 limits assumed, chain 2 of 2): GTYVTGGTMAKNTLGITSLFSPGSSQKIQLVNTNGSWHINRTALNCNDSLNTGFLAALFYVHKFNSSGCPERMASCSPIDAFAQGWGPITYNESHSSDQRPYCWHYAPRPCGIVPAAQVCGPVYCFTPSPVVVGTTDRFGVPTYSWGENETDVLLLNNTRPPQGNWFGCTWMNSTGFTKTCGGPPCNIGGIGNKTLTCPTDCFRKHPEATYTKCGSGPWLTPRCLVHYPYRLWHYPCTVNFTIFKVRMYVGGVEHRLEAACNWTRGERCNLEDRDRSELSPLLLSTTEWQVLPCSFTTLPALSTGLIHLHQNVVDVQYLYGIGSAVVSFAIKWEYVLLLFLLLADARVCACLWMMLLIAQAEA

[2] = molecular target: HCV E1E2 glycoproteins, genotype 2a (J6) (Hepatitis C virus genotype 2a (J6)); assay: cell-based or functional assay
Peptide D3 = settings: remark: other sources report otherwise

| Binder | EC50, neutralization of Con1 HCVpp entry (Huh-7.5, luciferase) [1] | EC50, neutralization of J6 HCVpp entry (Huh-7.5, luciferase) [2] | EC50 (read off the curve) (Peptide D3) |
| --- | --- | --- | --- |
| B1 | 1.42 µg/mL | 2.07 µg/mL | – |
| B2 | – | – | 0.02 µg/mL |
